Patent US20100297606A1 (KAGOSHIMA UNIVERSITY, published 2010)
Positions of bridges follow the written chain, without caps; N, C: chain ends. No end group written: not given here. *: point of attachment. Biotin = O=C1N[C@H]2[C@H](CS[C@H]2CCCCC(=O)*)N1

Tests used:
[1] = biological target: T1, polyclonal human IgG antibody (serum-derived) (human); assay: SPR (BIAcore2000, 25 C), biotinylated peptide on SA chip, human IgG as analyte (41 to 660 nM)
T1 construct: also called hIgG
Description: SPR analysis was carried out using BIAcore2000 (BIAcore) at 25° C. Necessary reagents and sensor chips were purchased from BIAcore and then used. […] The amount of each peptide to be immobilized was adjusted so that the RU (response unit) ranged from 1500 to 2000. […] Binding reaction between human IgG and the peptides was measured. Thereafter, washing with running buffer (HBS-T) was conducted and then dissociation reaction was measured. For washing/elution of bound analytes from the sensor chips, 0.2 M glycine-HCl buffer (pH 2.7) was used. Binding parameters were analyzed using BIA evaluation Version 3.2 software.

human serum albumin = biological target: T2, human serum albumin (human, UniProt P02768 25-609); assay: ELISA on coated protein; biotinylated peptide premixed 4:1 with SA-AP; absorbance
T2 construct: Control protein; also called HSA
Description: (§1) The binding activity of the thus obtained biotinylated synthetic peptides to human IgG was assayed by an ELISA assay. […] Specifically, wells coated with human IgG (100 ng/50 μl/well) were blocked by the addition of 0.5% BSA. A biotinylated synthetic peptide and alkaline phosphatase-labeled streptavidin (SA-AP) were mixed in advance at a molar ratio of 4:1 and then the mixture was added to the well, followed by 1 hour of reaction. Para-nitrophenyl phosphate (Wako) was used for color development. Detection was carried out by measuring absorbance at 405 nm. As a positive control of human IgG, the Fc fragment of hIgG was used. As other control proteins, human IgA and IgE, mouse IgG, IgA, and IgE, hTF, fetal bovine serum (FBS), HSA, BSA, and gelatin were used.

bovine serum albumin = biological target: T3, bovine serum albumin (bovine, UniProt P02769 25-607); assay: as above
T3 construct: Control protein; also called BSA
T3 sequence (P02769 25-607 limits assumed): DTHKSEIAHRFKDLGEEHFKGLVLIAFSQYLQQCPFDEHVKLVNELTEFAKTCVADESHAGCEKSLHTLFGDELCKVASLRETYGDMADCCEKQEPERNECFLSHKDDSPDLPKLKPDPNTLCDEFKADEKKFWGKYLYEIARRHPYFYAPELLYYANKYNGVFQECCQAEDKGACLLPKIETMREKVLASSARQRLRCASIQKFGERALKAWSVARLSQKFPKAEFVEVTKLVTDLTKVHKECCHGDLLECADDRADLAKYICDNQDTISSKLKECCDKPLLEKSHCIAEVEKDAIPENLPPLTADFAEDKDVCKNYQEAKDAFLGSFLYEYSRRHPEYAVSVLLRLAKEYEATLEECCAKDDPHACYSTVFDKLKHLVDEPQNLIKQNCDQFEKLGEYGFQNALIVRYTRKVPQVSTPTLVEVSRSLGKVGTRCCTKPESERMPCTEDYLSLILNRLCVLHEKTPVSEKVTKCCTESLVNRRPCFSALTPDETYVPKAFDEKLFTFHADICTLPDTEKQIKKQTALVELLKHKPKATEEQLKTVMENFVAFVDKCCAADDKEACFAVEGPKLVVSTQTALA
Description: as §1

human transferrin = biological target: T4, human transferrin (human, UniProt P02787 20-698); assay: as above
T4 construct: Control protein; also called hTF; ThF
T4 sequence (P02787 20-698 limits assumed): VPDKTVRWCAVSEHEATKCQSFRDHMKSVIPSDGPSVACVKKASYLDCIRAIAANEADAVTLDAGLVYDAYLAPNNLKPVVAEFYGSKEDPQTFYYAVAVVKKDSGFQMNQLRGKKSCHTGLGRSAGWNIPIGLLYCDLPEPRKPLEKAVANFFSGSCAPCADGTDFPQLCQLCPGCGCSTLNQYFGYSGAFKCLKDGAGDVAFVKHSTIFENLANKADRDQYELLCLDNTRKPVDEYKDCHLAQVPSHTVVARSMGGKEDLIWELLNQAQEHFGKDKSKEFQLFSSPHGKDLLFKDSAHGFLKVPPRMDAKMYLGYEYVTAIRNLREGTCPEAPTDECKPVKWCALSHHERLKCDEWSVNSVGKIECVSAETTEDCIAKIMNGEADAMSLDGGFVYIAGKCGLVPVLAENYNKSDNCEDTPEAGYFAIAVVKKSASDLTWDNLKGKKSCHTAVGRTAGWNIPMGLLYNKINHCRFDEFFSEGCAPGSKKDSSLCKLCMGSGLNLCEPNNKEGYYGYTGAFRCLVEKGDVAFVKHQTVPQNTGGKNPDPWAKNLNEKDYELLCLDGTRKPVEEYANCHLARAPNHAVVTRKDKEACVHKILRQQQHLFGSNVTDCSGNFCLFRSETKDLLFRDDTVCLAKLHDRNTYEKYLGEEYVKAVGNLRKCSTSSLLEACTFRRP
Description: as §1

[2] = biological target: T5, anti-HER2 human antibody (Herceptin), acid-treated; assay: SPR, peptides on sensor chips, antibody 250 nM; acid treatment pH 2.7, 40 C, 10 min; reference Fc-III peptide
T5 construct: Same antibody as m38 after acid treatment and neutralisation; also called acid-treated anti-HER2 human IgG; acid-denatured anti-HER2 human IgG
Description: (§2) For this SPR analysis, human IgG samples were prepared via acid treatment under various conditions as described below and then tested. […] Subsequently, 30 μl (or 20 μl for a sample to which glycine-HCl with pH 2.7 had been added) of 1 M Tris-HCl (pH 8.7) was added to each solution for neutralization.

[3] = biological target: T5, anti-HER2 human antibody (Herceptin), …; assay: SPR, peptides on sensor chips, antibody 250 nM; acid treatment pH 2.7, 20 C, 10 min; reference Fc-III peptide
Description: as §2

[4] = biological target: T5, anti-HER2 human antibody (Herceptin), …; assay: SPR, peptides on sensor chips, antibody 250 nM; acid treatment pH 2.1, 40 C, 10 min; reference Fc-III peptide
Description: as §2

[5] = biological target: T5, anti-HER2 human antibody (Herceptin), …; assay: SPR, peptides on sensor chips, antibody 250 nM; acid treatment pH 2.1, 20 C, 10 min; reference Fc-III peptide
Description: as §2

[6] = biological target: T5, anti-HER2 human antibody (Herceptin), …; assay: SPR, peptides on sensor chips, antibody 250 nM; acid treatment pH 2.7, 30 C, 10 min; reference Fc-III peptide
Description: as §2

Row | Binder | Kd [1] | koff [1] | kon [1] | binding result (human serum albumin) | binding result (bovine serum albumin) | binding result (human transferrin) | generation rate of acid-denatured IgG (ratio a/b of the SPR response on the IMGpep-4K6R chip to that on the Fc-III chip) [2] | generation rate of acid-denatured IgG (ratio a/b of the SPR response on the IMGpep-4K6R chip to that on the Fc-III chip) [3] | generation rate of acid-denatured IgG (ratio a/b of the SPR response on the IMGpep-4K6R chip to that on the Fc-III chip) [4] | generation rate of acid-denatured IgG (ratio a/b of the SPR response on the IMGpep-4K6R chip to that on the Fc-III chip) [5] | generation rate of acid-denatured IgG (ratio a/b of the SPR response on the IMGpep-4K6R chip to that on the Fc-III chip) [6]
1 | {Biotin-LC}-GCTGYWPKAWGLCG (disulfide 2-13 (inferred), also called biotinylated IMGpep-4) [synthetic peptide IMGpep-4] | 28 nM | 0.00041 s⁻¹ | 14000 M⁻¹ s⁻¹ | no binding | no binding | no binding | – | – | – | – | –
2 | GCTGYWPRAWGLCG (disulfide 2-13 (inferred); not fully specified (N-terminus), also called biotinylated IMGpep-4K6R) [synthetic peptide IMGpep-4K6R] | 24 nM | – | – | no binding | no binding | no binding | 40% | ~5% | ~40% | 7.8% | 9.7%
3 | {Biotin-LC}-GCGYWRSEWGLCG (disulfide 2-12 (inferred), also called biotinylated IMGpep-1) [synthetic peptide IMGpep-1] | 17 nM | 0.00034 s⁻¹ | 20000 M⁻¹ s⁻¹ | – | no binding | no binding | – | – | – | – | –
4 | {Biotin-LC}-GCGYWRSQWGLCG (disulfide 2-12 (inferred), also called biotinylated IMGpep-1E6Q) [synthetic peptide IMGpep-1E6Q] | 21 nM | 0.00031 s⁻¹ | 15000 M⁻¹ s⁻¹ | no binding | no binding | no binding | – | – | – | – | –
5 | {Biotin-LC}-GSGYWRSEWGLSG (Both Cys of IMGpep-1 replaced by Ser; linear control peptide; also called biotinylated IMGpep-1CS) [synthetic peptide IMGpep-1CS] | – | – | – | no binding | no binding | no binding | – | – | – | – | –
